According to patent publication US20210332115A1 (Sanofi, published 2021):
“And” between values parts separate entries of the source, which are not always exact repeats. Identical values can stand only once.

How the values were obtained:
[1] = biological target: T1, Homo sapiens factor Bb protein (human, UniProt P00751 260-764); assay: BLI Octet, biotinylated antibody on SA biosensors
T1 construct: Bought from CompTech (A155); also called complement factor Bb; human factor Bb
Method: (§1) Briefly, biotinylated antibodies were loaded onto SA Biosensors equilibrated in PBS, 0.1% BSA, 0.02% Tween-20 (assay buffer). After a 60 second baseline in assay buffer, antibodies were loaded onto the probes for 180 seconds, followed by another 60 second baseline. Association to human (Comptech) or cynomolgus monkey factor Bb (purified in-house) was measured for 300 seconds, followed by a 300 second dissociation. Kinetic parameters were calculated by the Octet Analysis software using a 1:1 binding model.

[2] = biological target: T1, Homo sapiens factor Bb protein; assay: SPR multi-cycle kinetics; ratio against VH0/Vκ0 on the same chip
Method: (§2) Antibodies were diluted in running buffer to a final concentration of 0.5 μg/ml. At the start of each cycle, antibodies were loaded onto Fc2, Fc3 and Fc4 of the Protein A chip (GE Healthcare, Little Chalfont, UK). IgGs were captured at a flow rate of 10 μl/min to give an immobilisation level (RL) of ˜63 RU, the theoretical value to obtain an Rmax of ˜50 RU. The surface was then allowed to stabilize. Kinetic data was obtained with factor Bb as analyte and using a flow rate of 30 μl/min to minimize any potential mass transfer effects. Multiple repeats of a blank and a repeat of a single concentration of the analyte were programmed into the kinetic run in order to check the stability of both the surface and analyte over the kinetic cycles. For kinetic analysis, a two-fold dilution range was selected from 12. 5 nM to 0. 391 nM factor Bb. The association phase of factor Bb was monitored for 360 seconds and the dissociation phase was monitored for 600 seconds. Regeneration of the Protein A surface was conducted using two injections of 10 mM glycine-HCL pH 1. 5. The signal from the reference channel Fc1 was subtracted from that of Fc2, Fc3 and Fc4 to correct for differences in non-specific binding to a reference surface, and a global Rmax parameter was used in the 1-to-1 binding model.
(§3) The sensorgrams and fitted data for the binding of chimeric antibodies and humanized variants to factor Bb are shown in FIGS. 4A-4C. The relative KD was calculated by dividing the KD of the humanized variants by that of the chimeric antibody on the same chip. The kinetic parameters measured for the interaction of factor Bb with chimeric antibodies and humanized variants are shown in Table 10.

[3] = biological target: T1, Homo sapiens factor Bb protein; assay: SPR multi-cycle kinetics, IgG on Protein A chip, factor Bb analyte
Method: as §2, §3

[4] = biological target: T1, Homo sapiens factor Bb protein; assay: SPR single cycle kinetics, IgG on Protein A chip, factor Bb analyte
Method: (§4) In order to assess the binding of all humanized variants, single cycle kinetic analysis was performed on supernatants from transfected cell cultures. […] All single cycle kinetic experiments were run at 25° C. with HBS-P+running buffer (pH 7. 4) (GE Healthcare, Little Chalfont, UK).
(§5) Antibodies were diluted in running buffer to a final concentration of 1 μg/ml, based on concentrations assessed by ELISA titer. At the start of each cycle, antibodies were loaded onto Fc2, Fc3 and Fc4 of the Protein A chip (GE Healthcare, Little Chalfont, UK). IgGs were captured at a flow rate of 10 μl/min to give an immobilization level (RL) of ˜63 RU, the theoretical value to obtain an Rmax of ˜50 RU. The surface was then allowed to stabilize. Single cycle kinetic data was obtained with factor Bb (CompTech, Tyler, USA) as the analyte at a flow rate of 30 μl/min to minimize any potential mass transport limitations. Multiple repeats with the reference chimeric antibody were performed to check the stability of the surface and analyte over the kinetic cycles. The signal from the reference channel Fc1 (no antibody) was subtracted from that of Fc2, Fc3 and Fc4 to correct for differences in non-specific binding to a reference surface. A four point, two-fold dilution range from 0. 78 nM to 6. 25 nM factor Bb without regeneration between each concentration was used. The association phase for the four injections of increasing concentrations of factor Bb was monitored for 200 seconds each time and a single dissociation phase was measured for 200 seconds following the last injection of factor Bb. Regeneration of the Protein A surface was conducted using two injections of 10 mM glycine-HCL pH 1. 5.
Single cycle kinetics using cell culture supernatants were performed as described above.

[5] = biological target: T1, Homo sapiens factor Bb protein; assay: as above; remark: listed apart in the source
Method: as §4, §5
The sensorgrams and fitted data for the single cycle kinetics are shown in FIGS. 1A-1D and the kinetic parameters measured for the interaction of factor Bb with each antibody are shown in Table 7. The relative KD was calculated by dividing the KD of the VH0/Vκ0 reference antibody by that of the humanized variant assayed in the same experiment.

[6] = biological target: T1, Homo sapiens factor Bb protein; assay: BLI, multi-cycle kinetics, antibody loaded on anti-hIgG Fc sensors, human factor Bb in solution (100 nM to 0.14 nM), 1:1 fit
Method: Multicycle kinetic analysis was performed on CHO and HEK-produced VH6/VK7-IgG4v2 antibodies using biolayer interferometry. Antibodies were diluted to 10 μg/mL in PBS+ 0.02%. Tween20, 0.1% BSA, 0.05% sodium azide and loaded onto anti-hIgG Fc sensors (pre-equilibrated in the same buffer) for 90 seconds followed by a 60-minute baseline in buffer. Binding of a concentration series of human factor Bb (Complement Technologies, #A155), ranging from 100 nM to 0.14 nM in 2-fold dilutions, was measured in a 300 second association in the same buffer, followed by a 300 second dissociation step.

[7] = biological target: T1, Homo sapiens factor Bb protein; assay: BLI Octet, biotinylated antibody on SA biosensors; remark: listed apart in the source
Method: as §1
To determine whether the modification of the Fc portion of the antibodies affected affinity and species cross-reactivity, VH4/VK6-IgG4v2 and VH6/VK7-IgG4v2 were tested alongside their parental antibodies, VH4/VK6 and VH6/VK7, respectively, for their ability to bind human and cynomolgus monkey factor Bb by BLI. VH4/VK6-IgG4v2 and VH6/VK7-IgG4v2 contain mutations in the Fc region that increase the affinity for an Fc receptor.

T1 sequence (P00751 260-764 limits assumed): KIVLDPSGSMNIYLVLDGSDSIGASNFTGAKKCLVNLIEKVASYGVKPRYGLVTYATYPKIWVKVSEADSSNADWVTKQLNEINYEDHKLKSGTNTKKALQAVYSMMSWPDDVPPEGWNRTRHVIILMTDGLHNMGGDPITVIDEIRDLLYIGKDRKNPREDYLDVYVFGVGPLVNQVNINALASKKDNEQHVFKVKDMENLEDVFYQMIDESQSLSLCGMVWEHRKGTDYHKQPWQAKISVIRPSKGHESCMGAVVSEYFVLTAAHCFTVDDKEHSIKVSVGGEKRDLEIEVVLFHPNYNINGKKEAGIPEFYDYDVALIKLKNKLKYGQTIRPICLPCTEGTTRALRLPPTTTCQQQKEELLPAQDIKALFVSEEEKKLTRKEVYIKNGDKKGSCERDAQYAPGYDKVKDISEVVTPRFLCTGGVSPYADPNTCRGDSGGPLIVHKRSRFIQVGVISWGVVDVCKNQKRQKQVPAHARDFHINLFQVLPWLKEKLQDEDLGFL

Row | Binder | Kd [1] [nM] | Relative KD [2] | Kd [3] | koff [3] | kon [3] | Kd [4] [nM] | koff [4] [s⁻¹] | kon [4] [M⁻¹ s⁻¹] | Kd [5] [nM] | koff [5] [s⁻¹] | kon [5] [M⁻¹ s⁻¹] | Kd [6] [nM] | Kd [7] [nM]
1 | VH0/Vκ0 (Chimeric) (antibody, V domains shown, also called chimeric antibody) VH: EVQLVESGGALVKPGGSLKLSCAASGFTFSNYAMSWVRQTPEKRLEWVATISNRGSYTYYPDSVKGRFTISRDNAKNTLYLQMSSLRSEDTALYYCARERPMDYWGQGTSVTVSS VL: DIVMTQSHKFMSTSVGDRVSITCKASQDVGTAVAWYQQKPGQSPKLLIYWASTRHTGVPDRFTGSGSGTDFTLTITNVQSEDLAVYFCHQHSSNPLTFGAGTKLELK | 2 | 1 | 1.99 nM and 1.91 nM and 1.9 nM | 0.000969 s⁻¹ and 0.000954 s⁻¹ and 0.00094 s⁻¹ | 487000 M⁻¹ s⁻¹ and 500000 M⁻¹ s⁻¹ and 495000 M⁻¹ s⁻¹ | 1.77 | 0.000949 | 535000 | 1.76 | 0.00103 | 585000 |  | 
2 | VH6/Vκ7-IgG4v2 (antibody, also called VH6/VK7-IgG4v2; VH6/VK7-IgG4v2_HEK) heavy: not shown light: DIQMTQSPSTLSASVGDRVTITCKASQDVGTAVAWYQQKPGKAPKLLIYWASTRHTGVPDRFSGSGSGTDFTLTISSLQAEDFAVYFCHQHSSNPLTFGQGTKLEIKRTVAAPSVFIFPPSDEQLKSGTASVVCLLNNFYPREAKVQWKVDNALQSGNSQESVTEQDSKDSTYSLSSTLTLSKADYEKHKVYACEVTHQGLSSPVTKSFNRGEC |  |  |  |  |  |  |  |  |  |  |  | 2.9 | 1.7
